# Test results reported in the RNAGym collection of RNA variant scans (doi:10.1093/molbev/msab373).
# B1: Azoarcus group I ribozyme (parent)
# chain: GUGCCUUGCGCCGGGAAACCACGCAAGGGAUGGUGUCAAAUUCGGCGAAACCUAAGCGCCCGCCCGGGCGUAUGGCAACGCCGAGCCAAGCUUCGGCGCCUGCGCCGAUGAAGGUGUAGAGACUAGACGGCACCCACCUAAGGCAAACGCUAUGGUGAAGGCAUAGUCCAGGGAGUGGCGAAAGUCACACAAACCGG
# Variants of: B1
# Assay: reverse-splicing fitness (ratio to wild type); higher = more active; in vitro selection; Mg2+ level not given
# Method in brief: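 An in vitro group I ribozyme library with randomized positions was T7-transcribed and gel-purified. In triplicate, 10 pmol RNA in EPPS pH 7.5 was reacted with 50 pmoles of a 30-nt RNA substrate for 1 h at 37 °C across several added MgCl2 levels (1–48 mM), then stopped with EDTA. Products were reverse transcribed from a substrate-complementary primer, PCR-amplified and sequenced (HiSeq 4000). Fitness is a variant's read proportion after selection over that before, normalised to wild type.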
row,Variant,reverse-splicing fitness
1,C82G A111G A120C A145U C150U U176C,0.0348
2,C82G A111G A120C A145U C150U U176A,0.0202
3,C82G A111G A120C A145U C150U U176G,0.00869
4,C82G A111G A120G A145C C150G C169A U176G,0.00562
5,C82G A111G A120G A145C C150G C169A U176C,0.009
6,C82G A111G A120G A145C C150G C169A U176A,0.0102
7,C82G A111G A120C C150A C169A U176G,0.00841
8,C82G A111G A120C C150A C169A U176A,0.0223
9,C82G A111G A120C C150A C169A U176C,0.0204
10,C82G A111G A120C C150U C169A U176C,0.0182
11,C82G A111G A120C C150U C169A U176A,0.0199
12,C82G A111G A120C C150U C169A U176G,0.00693
13,C82G A111G A120G A145C C169A U176G,0.00415
14,C82G A111G A120G A145C C169A U176A,0.0165
15,C82G A111G A120G A145C C169A U176C,0.0114
16,C82G A111G A120C C150U U176C,0.0344
17,C82G A111G A120C C150U U176G,0.0127
18,C82G A111G A120C C150U U176A,0.0201
19,C82G A111G A120C A145U C150U C169U,0.0124
20,C82G A111G A120C A145U C150U C169A,0.01
21,C82G A111G A120C A145U C150U C169G,0.0094

row,Variant,reverse-splicing fitness
1,C82G A111G A120G A145C C169G,0.0204
2,C82G A111G A120G A145C C169A,0.0114
3,C82G A111G A120G A145C C169U,0.0132
4,C82G A111G A120C A145U C150U C169A U176A,0.0171
5,C82G A111G A120C A145U C150U C169A U176C,0.0137
6,C82G A111G A120C A145U C150U C169A U176G,0.00592
7,C82G A111G A120C U176C,0.045
8,C82G A111G A120C U176G,0.011
9,C82G A111G A120C U176A,0.0255
10,C82G A111G A120C A145U C150G C169G U176G,0.00515
11,C82G A111G A120G A145C,0.0157
12,C82G A111G A120G A145C C150U C169G,0.0111
13,C82G A111G A120G A145C C150U C169A,0.00962
14,C82G A111G A120G A145C C150U C169U,0.0088
15,C82G A111G A120C C169U,0.0179
16,C82G A111G A120C C169G,0.00841
17,C82G A111G A120C C169A,0.0101
18,C82G A111G A120C C150A C169A,0.0106
19,C82G A111G A120C C150A C169U,0.0123
20,C82G A111G A120C C150A C169G,0.00943
21,C82G A111G A120C C169G U176A,0.0164

row,Variant,reverse-splicing fitness
1,C82G A111G A120C C169G U176G,0.00531
2,C82G A111G A120C C169G U176C,0.0193
3,C82G A111G A120C C150G U176C,0.0121
4,C82G A111G A120C C150G U176G,0.00412
5,C82G A111G A120C C150G U176A,0.00594
6,C82G A111G A120G A145C C150U C169U U176G,0.00538
7,C82G A111G A120G A145C C150U C169U U176A,0.0174
8,C82G A111G A120G A145C C150U C169U U176C,0.0151
9,C82G A111G A120G A145C C150A C169U U176G,0.00551
10,C82G A111G A120G A145C C150A C169U U176A,0.021
11,C82G A111G A120G A145C C150A C169U U176C,0.0128
12,C82G A111G A120C A145U C169A,0.00712
13,C82G A111G A120C A145U C169G,0.00799
14,C82G A111G A120C A145U C169U,0.0157
15,C82G A111G A120G A145C C150U C169A U176C,0.00841
16,C82G A111G A120G A145C C150U C169A U176A,0.0167
17,C82G A111G A120G A145C C150U C169A U176G,0.00578
18,C82G A111G A120G A145C U176A,0.0154
19,C82G A111G A120G A145C U176C,0.0181
20,C82G A111G A120G A145C U176G,0.0063
21,C82G A111G A120C C150A C169U U176G,0.00877

row,Variant,reverse-splicing fitness
1,C82G A111G A120C C150A C169U U176C,0.0175
2,C82G A111G A120C C150A C169U U176A,0.0165
3,C82G A111G A120C C150A U176G,0.0141
4,C82G A111G A120C C150A U176C,0.0277
5,C82G A111G A120C C150A U176A,0.014
6,C82G A111G A120C C150G C169A U176G,0.00813
7,C82G A111G A120C C150G C169A U176A,0.0102
8,C82G A111G A120C C150G C169A U176C,0.016
9,C82G A111G A120C C150U C169A,0.0102
10,C82G A111G A120C C150U C169U,0.0144
11,C82G A111G A120C C150U C169G,0.00909
12,C82G A111G A120C C150G C169G,0.008
13,C82G A111G A120C C150G C169U,0.0104
14,C82G A111G A120C C150G C169A,0.00976
15,C82G A111G A120G A145C C150A C169G,0.00843
16,C82G A111G A120G A145C C150A C169A,0.00854
17,C82G A111G A120G A145C C150A C169U,0.0075
18,C82G A111G A120G A145C C150A C169G U176C,0.0187
19,C82G A111G A120G A145C C150A C169G U176A,0.0249
20,C82G A111G A120G A145C C150A C169G U176G,0.00603
